{
  "source": "patent US11098333B2",
  "about": "“ATP phosphoribosyltransferase variant and method for producing L-histidine using the same” (priority 2017, dated 2021)",
  "molecules": {"B1": {"name": "HisG (N215R/G233H/T235Q): ATP phosphoribosyltransferase variant N215R/G233H/T235Q, SEQ ID NO: 1 (protein)", "chain": "MLKIAVPNKGSLSERAMEILAEAGYAGRGDSKSLNVFDEANNVEFFFLRPKDIAIYVAGGQLDLGITGRDLARDSQADVHEVLSLGFGSSTFRYAAPADEEWSIEKLDGKRIATSYPNLVRDDLAARGLSAEVLRLDGAVEVSIKLGVADAIADVVSTGRTLRQQGLAPFGEVLCTSEAVIVGRKDEKVTPEQQILLRRIQGILHAQNFLMLDYRVDRDNLDAATAVTPGLSHPQVSPLARDNWVAVRAMVPRRSANAIMDKLAGLGAEAILASEIRIARI", "modifications": "HisG"}, "B2": {"name": "HisG (N215K/G233H/T235Q): ATP phosphoribosyltransferase variant N215K/G233H/T235Q (protein)", "chain": "B1 chain with R215K"}, "B3": {"name": "HisG (N215R): ATP phosphoribosyltransferase variant with N215R substitution (protein)", "chain": "B1 chain with H233G, Q235T"}, "B4": {"name": "HisG (G233H/T235Q): ATP phosphoribosyltransferase variant with G233H and T235Q substitutions (protein)", "chain": "B1 chain with R215N"}, "B5": {"name": "HisG (N215K/L231F/T235A): known HisG variant N215K/L231F/T235A (Biochimie. 2012 March; 94(3):829-38) (protein)", "chain": "B1 chain with R215K, L231F, H233G, Q235A"}, "B6": {"name": "HisG: wild-type Corynebacterium glutamicum ATP phosphoribosyltransferase, SEQ ID NO: 13 (protein)", "chain": "B1 chain with R215N, H233G, Q235T", "modifications": "HisG"}, "B7": {"name": "HisG (N215R/L231F/T235A): ATP phosphoribosyltransferase variant N215R/L231F/T235A (protein)", "chain": "B1 chain with L231F, H233G, Q235A"}},
  "note": "Changes are numbered by the printed parent chain. In names and notes the source's numbering stands.",
  "data": [
    {"system": "ATP phosphoribosyltransferase (HisG)", "assay": "Measurement of activities of ATP phosphoribosyltransferases (UV 290 nm, cell supernatant)", "format": "biochemical, Corynebacterium glutamicum", "conditions": "30° C., UV 290 nm, no L-histidine", "procedure": "(§1) Corynebacterium glutamicum ATCC 13032 and the strains HCJ-96, HCJ-161, HCJ-162, HCJ-163, HCJ-164, and HCJ-165 selected in Example 3 were each inoculated into a corner-baffle flask (250 mL) containing a seed medium (25 mL), and were cultured at 30° C. for 20 hours with shaking at 200 rpm to obtain a seed culture solution. Thereafter, the seed culture solution (1 mL) was inoculated into a corner-baffle flask (250 mL) containing a production medium (24 mL), and was cultured at 30° C. for 45 hours at 200 rpm. After the culture, the obtained cells were sonicated and centrifuged, and the supernatant obtained therefrom was used for evaluation of the activity of ATP phosphoribosyltransferase.\n(§2) The activities of the ATP phosphoribosyltransferase variants obtained in Example 4-1 and that of a wild-type ATP phosphoribosyltransferase variant were measured. The evaluation of the activities of these enzymes was performed with reference to the conditions described in an existing literature report (Biochimie. 2012 March; 94(3):829-38.).\n(§3) For the evaluation of the activities of the enzymes, the supernatant was quantified to give the same concentration. These enzymes were used as sample enzymes, and the reaction conditions were as follows: the reaction compositions were mixed to the quantified protein (0.05 mg) to give a total amount of 500 μL, and then measured at 30° C. at a UV wavelength of 290 nm for 90 seconds. With regard to the wild-type ATP phosphoribosyltransferase having low activity, the supernatant protein (0.3 mg) was used and measured at a UV wavelength of 290 nm for 30 minutes for the activity evaluation. The composition of the reaction solution for measuring the activities of the enzymes is as follows: […]", "units": {"Activity of ATP phosphoribosyltransferase (HisG)": "U/mg"}, "values": [
      {"molecule": "B1", "Activity of ATP phosphoribosyltransferase (HisG)": 2.082},
      {"molecule": "B2", "Activity of ATP phosphoribosyltransferase (HisG)": 1.3},
      {"molecule": "B3", "Activity of ATP phosphoribosyltransferase (HisG)": 0.021},
      {"molecule": "B4", "Activity of ATP phosphoribosyltransferase (HisG)": 1.381},
      {"molecule": "B5", "Activity of ATP phosphoribosyltransferase (HisG)": 0.387},
      {"molecule": "B6", "Activity of ATP phosphoribosyltransferase (HisG)": 0.013},
      {"molecule": "B7", "Activity of ATP phosphoribosyltransferase (HisG)": 0.408}
    ]},
    {"system": "ATP phosphoribosyltransferase (HisG)", "assay": "Measurement of activities of ATP phosphoribosyltransferases (UV 290 nm, cell supernatant)", "format": "biochemical, Corynebacterium glutamicum", "conditions": "relative to wild-type enzyme", "procedure": "as §1, §2, §3", "values": [
      {"molecule": "B1", "activity fold higher than that of the wild-type enzyme": "about 160 fold"}
    ]},
    {"target": "T1, ATP phosphoribosyltransferase (HisG) (Corynebacterium glutamicum, UniProt Q9Z472)", "T1 construct": "made in house; host or cells: Corynebacterium glutamicum ATCC 13032 (wild type) and HCJ-96, -161, -162, -163, -164, -165 (chromosomal hisG alleles); unpurified supernatant of sonicated cells", "T1 sequence (Q9Z472 whole entry, looked up)": "B1 chain with R215N, H233G, Q235T", "assay": "Degree of inhibition by L-histidine on activities of ATP phosphoribosyltransferase variants", "format": "biochemical", "conditions": "L-histidine 50 mM and 100 mM", "procedure": "(§4) For the evaluation of the activities of the enzymes, the supernatant was quantified to give the same concentration. These enzymes were used as sample enzymes, and the reaction conditions were as follows: the reaction compositions were mixed to the quantified protein (0.05 mg) to give a total amount of 500 μL, and then measured at 30° C. at a UV wavelength of 290 nm for 90 seconds. With regard to the wild-type ATP phosphoribosyltransferase having low activity, the supernatant protein (0.3 mg) was used and measured at a UV wavelength of 290 nm for 30 minutes for the activity evaluation. The composition of the reaction solution for measuring the activities of the enzymes is as follows:\n(§5) The degree of inhibition by L-histidine on the activities of ATP phosphoribosyltransferase and the ATP phosphoribosyltransferase variants obtained in Example 4-1 was measured. Specifically, the activities of these enzymes were measured in the reaction composition solution of Example 4-2, which contained L-histidine (0 mM, 50 mM, or 100 mM), using the method described in Example 4-2. […] However, the activities of the ATP phosphoribosyltransferase variants were less inhibited by L-histidine.", "values": [
      {"molecule": "B6", "inhibition of enzyme activity by L-histidine (in words)": "completely inhibited"}
    ]},
    {"target": "T2, ATP phosphoribosyltransferase (HisG) (Corynebacterium glutamicum, UniProt Q9Z472, G233H/N215R/T235Q)", "T2 construct": "made in house; host or cells: Corynebacterium glutamicum ATCC 13032 (wild type) and HCJ-96, -161, -162, -163, -164, -165 (chromosomal hisG alleles); unpurified supernatant of sonicated cells", "assay": "Degree of inhibition by L-histidine on activities of ATP phosphoribosyltransferase variants", "format": "biochemical", "conditions": "L-histidine 100 mM", "procedure": "as §4, §5", "values": [
      {"molecule": "B1", "activity in composition solution containing L-histidine (in words)": "showed the highest activity"}
    ]},
    {"system": "ATP phosphoribosyltransferase (HisG)", "assay": "Degree of inhibition by L-histidine on activities of ATP phosphoribosyltransferase variants", "format": "biochemical, Corynebacterium glutamicum", "conditions": "L-histidine 0 mM", "procedure": "as §4, §5", "units": {"Activity of Enzyme, 0 mM L-histidine": "U/mg"}, "values": [
      {"molecule": "B1", "Activity of Enzyme, 0 mM L-histidine": 2.082},
      {"molecule": "B2", "Activity of Enzyme, 0 mM L-histidine": 1.3},
      {"molecule": "B3", "Activity of Enzyme, 0 mM L-histidine": 0.021},
      {"molecule": "B4", "Activity of Enzyme, 0 mM L-histidine": 1.381},
      {"molecule": "B5", "Activity of Enzyme, 0 mM L-histidine": 0.387},
      {"molecule": "B6", "Activity of Enzyme, 0 mM L-histidine": 0.013},
      {"molecule": "B7", "Activity of Enzyme, 0 mM L-histidine": 0.408}
    ]},
    {"system": "ATP phosphoribosyltransferase (HisG)", "assay": "Degree of inhibition by L-histidine on activities of ATP phosphoribosyltransferase variants", "format": "biochemical, Corynebacterium glutamicum", "conditions": "L-histidine 50 mM", "procedure": "as §4, §5", "units": {"Activity of Enzyme, 50 mM L-histidine": "U/mg"}, "values": [
      {"molecule": "B1", "Activity of Enzyme, 50 mM L-histidine": 1.435},
      {"molecule": "B2", "Activity of Enzyme, 50 mM L-histidine": 0.679},
      {"molecule": "B3", "Activity of Enzyme, 50 mM L-histidine": 0},
      {"molecule": "B4", "Activity of Enzyme, 50 mM L-histidine": 0.64},
      {"molecule": "B5", "Activity of Enzyme, 50 mM L-histidine": 0.202},
      {"molecule": "B6", "Activity of Enzyme, 50 mM L-histidine": 0},
      {"molecule": "B7", "Activity of Enzyme, 50 mM L-histidine": 0.157}
    ]},
    {"system": "ATP phosphoribosyltransferase (HisG)", "assay": "Degree of inhibition by L-histidine on activities of ATP phosphoribosyltransferase variants", "format": "biochemical, Corynebacterium glutamicum", "conditions": "L-histidine 100 mM", "procedure": "as §4, §5", "units": {"Activity of Enzyme, 100 mM L-histidine": "U/mg"}, "values": [
      {"molecule": "B1", "Activity of Enzyme, 100 mM L-histidine": 1.335},
      {"molecule": "B2", "Activity of Enzyme, 100 mM L-histidine": 0.413},
      {"molecule": "B3", "Activity of Enzyme, 100 mM L-histidine": 0},
      {"molecule": "B4", "Activity of Enzyme, 100 mM L-histidine": 0.542},
      {"molecule": "B5", "Activity of Enzyme, 100 mM L-histidine": 0.023},
      {"molecule": "B6", "Activity of Enzyme, 100 mM L-histidine": 0},
      {"molecule": "B7", "Activity of Enzyme, 100 mM L-histidine": 0}
    ]}
  ]
}
